Key:
[1] = substrate: NC(=O)c1ccc[n+]([C@@H]2O[C@H](COP(=O)(O)OP(=O)(O)OC[C@H]3O[C@@H](n4cnc5c(N)ncnc54)[C@H](O)[C@@H]3O)[C@@H](O)[C@H]2O)c1; assay: purified protein; conditions: saturating DL-isocitrate, 35 mM Tris-HCl pH 7.5, […] MnCl2, 37 °C
[2] = substrate: O=C(O)CC(C(=O)O)C(O)C(=O)O; assay: purified protein; conditions: saturating NAD+, 35 mM Tris-HCl pH 7.5, […] MnCl2, 37 °C
[3] = target: the molecule itself; assay: SEC; HiLoad 10/300 Superdex 200, 0.05 M potassium phosphate pH 7.0, 0.15 M NaCl, 0.01% NaN3, flow 0.5 ml/min; calibrated with ovalbumin, conalbumin, aldolase, ferritin, thyroglobulin; native mass estimated as 70 kDa against a 43 kDa subunit

B1: SmIDH (Streptococcus mutans UA159) (protein)
chain: MAEKVSFEEGKLQVPDKPVIPYIEGDGVGQDIWKNAQIVFDKAIAKVYGGHKQVIWREVLAGKKAYNETGNWLPNETLEIIKTHLLAIKGPLETPVGGGIRSLNVALRQELDLFACVRPVRYFKGVPSPLKHPEKTAITIFRENTEDIYAGIEWNAGTAEVQKVINFLQDDMQVKKIRFPKSSSIGIKPISIEGSQRLIRAAIEYALANNLTKVTLVHKGNIQKFTEGGFRKWGYELAKREYAAELASGQLVVDDIIADNFLQQILLKPERFDVVALTNLNGDYASDALAAQVGGIGISPGANINYQTGHAIFEATHGTAPDIAGQDLANPSSVLLSGCMLFDYIGWSKVSDLIMKAVEKAIANGQVTIDFAKELGVEALTTRQFSEVLLTYL
How did the Km [1] turn out when B1 was run?
The Km was 154 µM.

What about the kcat [1] of the same protein?
The kcat was 56 s⁻¹.

And the kcat/Km [1]?
The kcat/Km was 360000 M⁻¹ s⁻¹.

What about the Km [2] of the same protein?
The Km was 75 µM.

What about the kcat [2] of the same protein?
Its kcat is 124 s⁻¹.

What about the kcat/Km [2] of the same protein?
Its kcat/Km is 1.65e+06 M⁻¹ s⁻¹.

B2: NAD+-dependent isocitrate dehydrogenase of Streptococcus mutans (enzyme, UniProt Q59940 1-393, looked up)
chain: MAEKVSFEEGKLQVPDKPVIPYIEGDGVGQDIWKNAQIVFDKAIAKVYGGHKQVIWREVLAGKKAYNETGNWLPNETLEIIKTHLLAIKGPLETPVGGGIRSLNVALRQELDLFACVRPVRYFKGVPSPLKHPEKTAITIFRENTEDIYAGIEWNAGTAEVQKVINFLQDDMQVKKIRFPKSSSIGIKPISIEGSQRLIRAAIEYALANNLTKVTLVHKGNIQKFTEGGFRKWGYELAKREYAAELASGQLVVDDIIADNFLQQILLKPERFDVVALTNLNGDYASDALAAQVGGIGISPGANINYQTGHAIFEATHGTAPDIAGQDLANPSSVLLSGCMLFDYIGWSKVSDLIMKAVEKAIANGQVTIDFAKELGVEALTTRQFSEVLLTYL
notes: 399 residues per subunit with the tag; The C-terminal position of the His6 tag is read from the reverse primer R-Sm^icd (CTA + six GTG codons on the antisense strand); also called SmIDH; S. mutans IDH; not shown: His6, C-terminal, kept
Which “stoichiometry N” value [3] does the source give for B2 here?
Its value is 2.

From PMC3590139, “Isocitrate Dehydrogenase from Streptococcus mutans: Biochemical Properties and Evaluation of a Putative Phosphorylation Site at Ser102” (PLoS ONE, 2013)
